Experimental findings from patent US12319742 (SHATTUCK LABS, dated 2025) are described below.

The EC50 is the concentration needed to bring the measured effect to its halfway point. In general, koff refers to the rate constant with which the complex falls apart. A word on the kon: it is the rate constant with which the complex forms. The Kd is a measure of binding affinity in units of concentration.

For one test, the target named is T1, 4-1BB.
T1 construct: member of group m24; also called 4-1BB overexpressed in engineered mammalian cells
In words: flow cytometry on engineered mammalian cells overexpressing 4-1BB, APC anti-human Fc. Background: Flow cytometry measures light scatter and fluorescence of single cells or particles in a stream.

Test [1] concerns the target T2, TNFRSF25 on lymphocytes in human PBMCs (human, UniProt Q93038 25-417).
T2 construct: whole, on cells; also called TNFRSF25 on CD4+ and CD8+ T cells and NK cells
T2 sequence (looked up): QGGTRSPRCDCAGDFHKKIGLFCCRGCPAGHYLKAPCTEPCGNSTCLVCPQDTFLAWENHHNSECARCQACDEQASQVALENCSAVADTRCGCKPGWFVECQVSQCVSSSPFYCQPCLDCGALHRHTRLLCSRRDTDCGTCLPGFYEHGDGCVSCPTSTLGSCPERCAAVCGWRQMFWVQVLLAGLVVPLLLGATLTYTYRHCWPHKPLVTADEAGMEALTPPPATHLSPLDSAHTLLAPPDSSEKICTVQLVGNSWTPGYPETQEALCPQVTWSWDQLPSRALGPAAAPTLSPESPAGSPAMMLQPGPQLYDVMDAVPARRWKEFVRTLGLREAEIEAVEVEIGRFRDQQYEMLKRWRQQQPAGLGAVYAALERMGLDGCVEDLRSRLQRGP
The test is described as follows: flow cytometry MFI on CD4+ T cells of human PBMCs, IL12+IL18 stimulation 24 h, APC anti-human Fc. As for the experimental part:
(§1) Human PBMCs were stimulated with either IL12+IL18 or anti-CD3/CD28 for 24 hours to assess binding of anti-TNFRSF25 to lymphocyte subsets.
(§2) Figure 9: FIG. 9. […] Figure 10: FIG. 10.

In the next test the target is T3, OX40.
T3 construct: member of group m24; also called OX40 overexpressed in engineered mammalian cells
T3 chain: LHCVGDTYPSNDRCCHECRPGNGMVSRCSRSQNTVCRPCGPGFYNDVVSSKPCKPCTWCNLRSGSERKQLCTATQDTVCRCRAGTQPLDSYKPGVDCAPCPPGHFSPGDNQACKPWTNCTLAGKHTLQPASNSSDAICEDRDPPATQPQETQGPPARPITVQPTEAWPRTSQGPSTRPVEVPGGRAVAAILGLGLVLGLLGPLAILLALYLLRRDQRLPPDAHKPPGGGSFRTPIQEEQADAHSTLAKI
The test is described as follows: flow cytometry on engineered mammalian cells overexpressing OX40, APC anti-human Fc.

The target of test [2] is FcγR1 (CD64), BLI reagent (UniProt P12314 16-288, limits assumed). In words: BLI; antibody as analyte at 300 nM on FcγR1. On the technique in general: Biolayer interferometry detects binding as a change in optical thickness at a sensor tip.
For test [3], the target named is T4, biotinylated recombinant human TNFRSF25-His tagged (Acro #TN5-H52H3) (human, UniProt Q93038 25-199, biotinylated).
T4 construct: treated as the same protein; also called recombinant biotin-conjugated human TNFRSF25 protein; DR3
T4 sequence (looked up): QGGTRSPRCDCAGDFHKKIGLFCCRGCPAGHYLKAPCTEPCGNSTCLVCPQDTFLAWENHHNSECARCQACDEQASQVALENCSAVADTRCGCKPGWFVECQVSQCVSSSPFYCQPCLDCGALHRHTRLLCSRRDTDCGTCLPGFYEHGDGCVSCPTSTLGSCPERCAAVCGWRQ
In words: SPR (Biacore); biotinylated TNFRSF25-His on streptavidin chip SA; 2 min association, 30 min dissociation; 1:1 binding. As for the experimental part:
(FIG. 5A) BLI assay was performed using the Octet Red 96e instrument. Streptavidin biosensors were loaded with biotinylated recombinant human TNFRSF25-His tagged (Acro #TN5-H52H3) as the ligand. […] (FIG. 5B) SPR was performed on a Biacore 8K instrument.
(In general: In SPR one partner is held on a chip, and binding of the other changes the refractive index at the surface.)

The target of test [4] is T2, TNFRSF25 on lymphocytes in human PBMCs. In words: flow cytometry MFI on NK cells of human PBMCs, anti-CD3/CD28 stimulation 24 h, APC anti-human Fc. As for the experimental part: as §1, §2
The target is the same in test [5]. The test is described as follows: flow cytometry MFI on CD8+ T cells of human PBMCs (panel 1003_CD8+T), no stimulation, APC anti-human Fc.
Test [6] deals with T5, biotinylated recombinant human FcRn-His tagged protein (Acro #FCM-H82W7) (human, UniProt P55899 24-297; P61769 21-119, biotinylated).
T5 construct: also called hFcRn; neonatal Fc receptor
The test is described as follows: BLI/Octet; biotinylated human FcRn-His on streptavidin biosensor; pH 7.4. The method, then:
Figure 5D: FIG. 5D. FcRn binding kinetics by anti-TNFRSF25 antibodies. BLI assay was performed using the Octet Red 96e instrument. Streptavidin biosensors were loaded with biotinylated recombinant human(h) FcRn-His tagged protein (Acro #FCM-H82W7) as the ligand. During the association phase, biosensors were incubated with anti-DR3 candidate antibodies at various concentrations for 600 seconds, followed by a 600-second dissociation phase.
To detect binding of certain whole antibodies to the neonatal Fc receptor (FcRn) at neutral and acidic pH conditions, streptavidin biosensors were loaded with biotinylated recombinant human FcRn-His tagged protein (Acro #FCM-H82W7) as the ligand. During the association phase, biosensors were incubated with anti-TNFRSF25 antibodies at various concentrations for 600 seconds, followed by a 600 second dissociation phase.

Another test addresses T6, CD40.
T6 construct: member of group m24; also called CD40 overexpressed in engineered mammalian cells
In words: flow cytometry on engineered mammalian cells overexpressing CD40, APC anti-human Fc.

T5 sequence (P55899 24-297 limits assumed, chain 1 of 2): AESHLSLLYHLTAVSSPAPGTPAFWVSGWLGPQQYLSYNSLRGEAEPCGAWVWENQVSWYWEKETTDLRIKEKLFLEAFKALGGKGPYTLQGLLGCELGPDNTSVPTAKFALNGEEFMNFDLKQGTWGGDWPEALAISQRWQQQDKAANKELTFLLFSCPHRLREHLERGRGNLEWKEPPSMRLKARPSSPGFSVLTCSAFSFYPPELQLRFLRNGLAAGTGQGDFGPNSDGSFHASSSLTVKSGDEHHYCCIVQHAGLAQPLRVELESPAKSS
T5 sequence (P61769 21-119 limits assumed, chain 2 of 2): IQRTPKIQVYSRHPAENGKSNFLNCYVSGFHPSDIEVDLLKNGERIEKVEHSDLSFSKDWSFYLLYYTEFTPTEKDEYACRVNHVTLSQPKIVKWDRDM
FcγR1 (CD64), BLI reagent, sequence (P12314 16-288 limits assumed): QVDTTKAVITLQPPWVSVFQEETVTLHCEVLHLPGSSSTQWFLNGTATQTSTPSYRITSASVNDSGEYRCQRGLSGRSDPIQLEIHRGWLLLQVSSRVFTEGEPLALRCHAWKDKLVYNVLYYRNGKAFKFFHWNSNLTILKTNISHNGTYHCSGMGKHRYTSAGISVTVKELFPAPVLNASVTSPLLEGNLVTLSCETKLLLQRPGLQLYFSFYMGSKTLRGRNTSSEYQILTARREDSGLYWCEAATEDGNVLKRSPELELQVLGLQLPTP
T1 sequence (chain, as listed by the source limits assumed): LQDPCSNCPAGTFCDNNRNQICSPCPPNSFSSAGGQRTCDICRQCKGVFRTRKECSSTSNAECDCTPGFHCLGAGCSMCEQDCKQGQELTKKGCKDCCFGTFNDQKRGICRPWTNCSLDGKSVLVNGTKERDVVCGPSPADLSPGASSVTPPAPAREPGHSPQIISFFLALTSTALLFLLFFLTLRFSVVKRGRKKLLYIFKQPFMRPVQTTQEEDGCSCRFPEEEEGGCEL
T6 sequence (chain, as listed by the source limits assumed): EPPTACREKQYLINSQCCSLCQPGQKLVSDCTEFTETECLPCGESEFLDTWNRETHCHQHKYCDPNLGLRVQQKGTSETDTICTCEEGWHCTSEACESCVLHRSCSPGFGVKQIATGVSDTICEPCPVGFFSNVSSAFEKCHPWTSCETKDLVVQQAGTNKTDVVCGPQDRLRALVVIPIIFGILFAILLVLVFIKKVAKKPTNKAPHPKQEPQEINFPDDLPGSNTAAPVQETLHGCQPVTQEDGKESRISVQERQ

B1: SL-061 (antibody, human IgG1, kappa)
heavy: QVQLQQSGPGLVKPSQTLSLTCAISGDSVSGYSAAWNWIRQSPSRGLEWLGRTYYRSKWYNDYAVSVKSRITINPDTSKNQFSLQLNSVTPEDTAVYYCARDYYGSESYYNRGYYYYGMDVWGQGTTVTVSSASTKGPSVFPLAPSSKSTSGGTAALGCLVKDYFPEPVTVSWNSGALTSGVHTFPAVLQSSGLYSLSSVVTVPSSSLGTQTYICNVNHKPSNTKVDKKVEPKSCDKTHTCPPCPAPEAAGAPSVFLFPPKPKDTLMISRTPEVTCVVVDVSHEDPEVKFNWYVDGVEVHNAKTKPREEQYNSTYRVVSVLTVLHQDWLNGKEYKCKVSNKALPAPIEKTISKAKGQPREPQVYTLPPSREEMTKNQVSLTCLVKGFYPSDIAVEWESNGQPENNYKTTPPVLDSDGSFFLYSKLTVDKSRWQQGNVFSCSVMHEALHNHYTQKSLSLSPGK
light: AIQLTQSPSSLSASVGDRVTITCRASPGISSALAWYQQKPGKAPKLLMYDESSQESGVPSRFSGSGSGTDFTLTISSLQPEDFATYYCQQFNDYPLTFGGGTKVEIKRTVAAPSVFIFPPSDEQLKSGTASVVCLLNNFYPREAKVQWKVDNALQSGNSQESVTEQDSKDSTYSLSSTLTLSKADYEKHKVYACEVTHQGLSSPVTKSFNRGEC
notes: Same variable regions as SL-033; IgG1 with L234A/L235A+G237A; also called clone 061; SL-061 (L234A/L235A+G237A)
Regarding B1, the binding result was “no binding (tested: about 20 nM)” with 4-1BB, “no binding (tested: about 20 nM)” in the test with OX40, “no binding (tested: 300 nM)” in test [2] and “no binding (tested: about 20 nM)” with CD40. The values for the EC50 in test [1], in test [4] and in test [5] were 0.035 nM, 0.054 nM and 0.068 nM, respectively. Also, the koff in test [3] was determined as 3.89e-06 s⁻¹; in test [6], 0.00327 s⁻¹. The kon was 2.85e+06 M⁻¹ s⁻¹ in test [3] and 441000 M⁻¹ s⁻¹ in test [6]. Further, in test [6], the Kd turned out to be 7.41 nM.
